Test results taken from patent publication US10253078 (ZEALAND PHARMA A S, dated 2019).
Starred links: 1 amine or outer side, 2 acyl side, 3 side chain; linkers in the order of their positions; H or OH if unused. Non-standard residues stand in square brackets, D forms with d. Groups on a side chain read outwards from the residue. *: point of attachment. C20 diacid = O=C(O)CCCCCCCCCCCCCCCCCCC(=O)*; γGlu = O=C(O)[C@H](CCC(=O)[*:2])N[*:1]; Aib = CC(C)(N)C(=O)O

T1: human GIP receptor (human, UniProt P48546 22-466)
T1 sequence (looked up): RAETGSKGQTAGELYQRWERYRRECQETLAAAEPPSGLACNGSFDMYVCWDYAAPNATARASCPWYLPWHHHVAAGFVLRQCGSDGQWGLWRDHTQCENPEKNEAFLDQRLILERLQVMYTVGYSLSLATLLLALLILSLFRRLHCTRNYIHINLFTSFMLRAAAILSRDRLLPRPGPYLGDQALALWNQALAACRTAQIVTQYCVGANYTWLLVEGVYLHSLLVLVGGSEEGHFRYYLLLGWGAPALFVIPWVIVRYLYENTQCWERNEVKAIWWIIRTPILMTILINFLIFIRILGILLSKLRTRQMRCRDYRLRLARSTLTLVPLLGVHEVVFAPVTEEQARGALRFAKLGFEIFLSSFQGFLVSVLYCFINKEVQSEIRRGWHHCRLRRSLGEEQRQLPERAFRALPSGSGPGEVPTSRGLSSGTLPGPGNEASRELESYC

B1: Compound 33 (peptide)
peptide: YAEGTFISDYSIELDKKAAQDFIEWLLAGPSSGAPPPS
modifications: Aib at 2; Lys 17 side chain acylated: K((19-Carboxy-nonadecanoyl)-[(Piperazine-1-yl)-acetyl]-Peg3-Peg3); C-terminal amide (-NH2)
B2: Compound 26 (peptide)
peptide: YAEGTFISDYSIELDKIAAQDFIEWLLAGPSSGAPPPSK
modifications: Aib at 2; Lys 39 side chain acylated: K((19-Carboxy-nonadecanoyl)-[(Piperazine-1-yl)-acetyl]-Peg3-Peg3); C-terminal amide (-NH2)
B3: Compound 37 (peptide)
peptide: YXEGTFISDYSIELDKIAAQDFIEWLLAGPSSGAPPPSK
modifications: D-Ala at 2; Lys 39 side chain acylated: K((19-Carboxy-nonadecanoyl)-[(Piperazine-1-yl)-acetyl]-Peg3-Peg3); C-terminal amide (-NH2)
B4: Compound 20 (peptide)
peptide: YAEGTFISDYSIELDKKAQRAFVEWLLAQGPSSGAPPPS
modifications: Aib at 2; Lys 17 side chain acylated: K((19-Carboxy-nonadecanoyl)-[(Piperazine-1-yl)-acetyl]-Peg3-Peg3); C-terminal amide (-NH2)
B5: Compound 41 (peptide)
peptide: YAEGTFISDYSIELDKKAAQAFIEWLLAQGPSSGAPPPS
modifications: Aib at 2; Lys 17 side chain acylated: K((19-Carboxy-nonadecanoyl)-[(Piperazine-1-yl)-acetyl]-Peg3-Peg3); C-terminal amide (-NH2)
B6: Compound 21 (peptide)
peptide: YAEGTFISDYSIELDKKAQKEFVEWLLAAGPSSGAPPPS
modifications: Aib at 2; Lys 17 side chain acylated: K((19-Carboxy-nonadecanoyl)-[(Piperazine-1-yl)-acetyl]-Peg3-Peg3); C-terminal amide (-NH2)

What was measured:
Assay in all cases: cell-based or functional assay
human GIP receptor [1] = target: T1, human GIP receptor
human GIP receptor [2] = target: T1, human GIP receptor; remark: listed apart in the source
human GLP-1 receptor = human GLP-1 receptor (human, UniProt P43220 24-463)

| Binder | EC50, hGIP-R level of cAMP (HEK293 cells expressing human GIP R) (human GIP receptor [1]) | EC50 hGIP R (cAMP, HEK293 cells expressing the GIP R) (human GIP receptor [2]) | EC50 hGLP1 R (cAMP, HEK293 cells expressing the GLP-1R) (human GLP-1 receptor) |
| --- | --- | --- | --- |
| B1 | 0.014 nM | 0.02 nM | > 10 nM |
| H-Y[Aib]EGTFISDYSIELDKIAAQDFIEWLLAGPSSGAPPPSK([Peg3-Peg3-γGlu-C20 diacid])-NH2 [Compound 25] | 0.032 nM | 0.008 nM | > 100 nM |
| H-Y[Aib]EGTFISDYSIELDKK([Peg3-Peg3-γGlu-C20 diacid])AAQDFIEWLLAQGPSSGAPPPS-NH2 [Compound 38] | 0.001 nM | 0.017 nM | > 100 nM |
| H-Y[Aib]EGTFISDYSIELDKIAQRAFIEWLLAQGPSSGAPPPSK([Peg3-Peg3-γGlu-C20 diacid])-NH2 [Compound 28] | 0.007 nM | 0.013 nM | > 3 nM |
| H-Y[Aib]EGTFISDYSIELDKK([Peg3-Peg3-γGlu-C20 diacid])AAQDFINWLLAGPSSGAPPPS-NH2 [Compound 31] | 0.012 nM | 0.009 nM | > 100 nM |
| H-Y[Aib]EGTFISDYSIELDKK([Peg3-Peg3-γGlu-C20 diacid])AAQAFIEWLLAQGPSSGAPPPS-NH2 [Compound 40] | 0.01 nM | 0.007 nM | > 10 nM |
| H-Y[dA]EGTFISDYSIELDKK([Peg3-Peg3-γGlu-C20 diacid])AQRAFIEWLLAQGPSSGAPPPS-NH2 [Compound 36] | 0.006 nM | 0.006 nM | > 10 nM |
| H-Y[Aib]EGTFISDYSIELEKK([Peg3-Peg3-γGlu-C20 diacid])AQRAFVEWLLAQGPSSGAPPPS-NH2 [Compound 12] | 0.009 nM | 0.009 nM | > 3 nM |
| H-Y[Aib]EGTFISDYSIELEKIAQRAFVEWLLAQK([Peg3-Peg3-γGlu-C20 diacid])-NH2 [Compound 14] | 0.024 nM | 0.014 nM | > 10 nM |
| H-Y[Aib]EGTFISDYSIELDKK([Peg3-Peg3-γGlu-C20 diacid])AAQDFIEWLLAGPSSGAPPPS-NH2 [Compound 32] | 0.02 nM | 0.012 nM | > 100 nM |
| H-Y[Aib]EGTFISDYSIELDKIAQKEFIEWLLAGPSSGAPPPSK([Peg3-Peg3-γGlu-C20 diacid])-NH2 [Compound 24] | 0.008 nM | 0.01 nM | > 10 nM |
| H-Y[Aib]EGTFISDYSIELDKK([Peg3-Peg3-γGlu-C20 diacid])AAQDFVNWLLAQGPSSGAPPPS-NH2 [Compound 10] | 0.007 nM | 0.008 nM | > 10 nM |
| B2 | 0.017 nM | 0.032 nM | > 10 nM |
| B3 | 0.016 nM | 0.006 nM | > 10 nM |
| H-Y[Aib]EGTFISDYSIELDK([Peg3-Peg3-γGlu-C20 diacid])IAQRAFIEWLLAQGPSSGAPPPS-NH2 [Compound 34] | 0.011 nM | 0.017 nM | > 10 nM |
| H-Y[Aib]EGTFISDYSK([Peg3-Peg3-γGlu-C20 diacid])ELDKIAQRAFIEWLLAQGPSSGAPPPS-NH2 [Compound 35] | 0.008 nM | 0.011 nM | > 3 nM |
| H-Y[Aib]EGTFISDYSIELDKK([Peg3-Peg3-γGlu-C20 diacid])AAQAFVNWLLAGPSSGAPPPS-NH2 [Compound 29] | 0.014 nM | 0.007 nM | > 100 nM |
| H-Y[Aib]EGTFISDYSIELDKIAQRAFIEWLLAGPSSGAPPPSK([Peg3-Peg3-γGlu-C20 diacid])-NH2 [Compound 23] | 0.01 nM | 0.005 nM | > 10 nM |
| H-Y[Aib]EGTFISDYSIELDKK([Peg3-Peg3-γGlu-C20 diacid])AQKEFVEWLLAAGPSSGAPPPS-NH2 [Compound 22] | 0.005 nM | 0.007 nM | > 10 nM |
| H-Y[Aib]EGTFISDYSIELDKK([Peg3-Peg3-γGlu-C20 diacid])AAQDFINWLLAQGPSSGAPPPS-NH2 [Compound 39] | 0.007 nM | 0.001 nM | > 100 nM |
| H-Y[Aib]EGTFISDYSIELDKIAAQDFVEWLLAGPSSGAPPPSK([Peg3-Peg3-γGlu-C20 diacid])-NH2 [Compound 27] | 0.013 nM | 0.017 nM | > 10 nM |
| H-Y[Aib]EGTFISDYSIELEKIAQRAFVEWLLAQGPSSGAPPPSK([Peg3-Peg3-γGlu-C20 diacid])-NH2 [Compound 13] | 0.014 nM | 0.008 nM | > 10 nM |
| H-Y[Aib]EGTFISDYSIELDKK([Peg3-Peg3-γGlu-C20 diacid])AAQDFVNWLLAGPSSGAPPPS-NH2 [Compound 15] | 0.012 nM | 0.024 nM | > 100 nM |
| H-Y[Aib]EGTFISDYSIELEKK([Peg3-Peg3-γGlu-C20 diacid])AAKEFVNWLLAQGPSSGAPPPS-NH2 [Compound 11] | 0.009 nM | 0.008 nM | > 3 nM |
| B4 | 0.007 nM | 0.006 nM | > 3 nM |
| B5 | 0.014 nM | 0.01 nM | > 10 nM |
| B6 | 0.007 nM | 0.006 nM | > 3 nM |
| H-Y[Aib]EGTFISDYSIELDKK([Peg3-Peg3-γGlu-C20 diacid])AAQDFVNWLLAAGPSSGAPPPS-NH2 [Compound 30] | 0.009 nM | 0.014 nM | > 10 nM |
